From US20070212705 come the findings set out here.

The target in this data set is T1, Tetrapeptide Lys substrate L-Ala-γ-D-Glu-L-Lys-D-Ala.
T1 chain: AEKA

Where two headings read alike, the source gives them in different places.

B1: P. aeruginosa L-D carboxypeptidase A (PA LDC), N-terminal his-tagged, expressed from pET14b in E. coli BL21 (protein)
chain: MTSRPSSDQTWQPIDGRVALIAPASAIATDVLEATLRQLEVHGVDYHLGRHVEARYRYLAGTVEQRLEDLHNAFDMPDITAVWCLRGGYGCGQLLPGLDWGRLQAASPRPLIGFSDISVLLSAFHRHGLPAIHGPVATGLGLSPLSAPREQQERLASLASVSRLLAGIDHELPVQHLGGHKQRVEGALIGGNLTALACMAGTLGGLHAPAGSILVLEDVGEPYYRLERSLWQLLESIDARQLGAICLGSFTDCPRKEVAHSLERIFGEYAAAIEVPLYHHLPSGHGAQNRAWPYGKTAVLEGNRLRW
Take B1: the “cleavage of tetrapeptide substrate” value is on record as “express a functional PA LDC protein that cleaved a tetrapeptide substrate in a dose dependent manner”. Besides, where the note is “scale: fold lower specific activity compared to E. coli LDC”, the cleavage of tetrapeptide substrate (RFU, Amplex Red detection of D-alanine released) worked out at 2.

B2: E. coli LDC protein (muramoyl-tetrapeptide carboxypeptidase P76008) (protein)
chain: MSLFHLIAPSGYCIKQHAALRGIQRLTDAGHQVNNVEVIARRCERFAGTETERLEDLNSLARLTTPNTIVLAVRGGYGASRLLADIDWQALVARQQHDPLLICGHSDFTAIQCGLLAHGNVITFSGPMLVANFGADELNAFTEHHFWLALRNETFTIEWQGEGPTCRAEGTLWGGNLAMLISLIGTPWMPKIENGILVLEDINEHPFRVERMLLQLYHAGILPRQKAIILGSFSGSTPNDYDAGYNLESVYAFLRSRLSIPLITGLDFGHEQRTVTLPLGAHAILNNTREGTQLTISGHPVLKM
As for B2, the “cleavage of tetrapeptide substrate (RFU, Amplex Red detection of D-alanine released)” value is given as “illustrates the cleavage of a tetrapeptide substrate (L-Ala-γ-D-Glu-L-Lys-D-Ala) by E. coli LDC (squares)”.
